Test results published in patent US20070292909A1 (RIKEN, published 2007).

Tests used:
[1] = target: the molecule itself; assay: ultracentrifugal analysis of self-association: 28 kDa measured, 26 kDa predicted
Procedure: An mKO protein solution with the composition consisting of 150 mM KCl and 50 mM HEPES-KOH (pH 7.4) was prepared. The molecular weight of mKO was determined by ultracentrifugal analysis. The above solution was centrifuged with an ultracentrifuge XL-1 (Beckman Coulter) at 25,000 rpm for 22 hours, so as to measure absorption at 540 nm around the maximum absorption (548 nm) of mKO. From the measurement results, the molecular weight of mKO was calculated to be 28 kDa (FIG. 3). This value was almost the same as 26 kDa predicted from the amino acid sequence, and thus it was confirmed that mKO exists in the form of a monomer.

[2] = target: the molecule itself; assay: ultracentrifugal molecular weight measurement of self-association

Row | Protein | binding result [1] | binding result [2]
1 | monomerized Kusabira-Orange (mKO) (other, also called KO mutant) MVSVIKPEMKMRYYMDGSVNGHEFTIEGEGTGRPYEGHQEMTLRVTMAKGGPMPFAFDLVSHVFCYGHRPFTKYPEEIPDYFKQAFPEGLSWERSLEFEDGGSASVSAHISLRGNTFYHKSKFTGVNFPADGPIMQNQSVDWEPSTEKITASDGVLKGDVTMYLKLEGGGNHKCQFKTTYKAAKKILKMPGSHYISHRLVRKTEGNITELVEDAVAHS | no binding | 
2 | cmkeima 620 (other) MRGSHHHHHHGMASMTGGQQMGRDLYDDDDKDPMVSVIAKQMTYKVYMSGTVNGHYFEVEGDGKGKPYEGEQTVKLTVTKGGPLPFAWDILSPQFQYGSIPFTKYPEDIPDYFKQSFPEGYTWERSMNFEDGAVCTVSNDSSIQGNCFIYNVKISGENFPPNGPVMQKKTQGWEPSTERLFARDGMLIGNDYMALKLEGGGHYLCEFKSTYKAKKPVRMPGRHEIDRKLDVTSHNRDYTSVEQCEIAIARHSLLG |  | no binding
